In assay [1] the target is T1, human dimeric EGFR (EGFR.mFc) (human).
T1 construct: Soluble dimeric EGFR construct
The experiment in a line: SPR 37C, mAb captured by anti-human Fc, EGFR.mFc analyte. On the procedure: (§1) Different concentrations of human monomeric (EGFR.mmh; SEQ ID NO:386) and dimeric (EGFR.mFc; SEQ ID NO:387) proteins were injected over the anti-EGFR monoclonal antibody captured surface at a flow rate of 50 μI/min. Antibody-antigen association was monitored for 4-5 minutes while dissociation of antigen from the captured monoclonal antibody surface was monitored for 10 min. Kinetic association (kₐ) and dissociation (kd) rate constants were determined by processing and fitting the data to a 1:1 binding model using Scrubber 2.0 curve fitting software.

Assay [2] concerns the target T2, EGFR on A431 epidermoid carcinoma cells (human, UniProt P00533 25-1210). The experiment in a line: cell-based or functional assay.
Assay [3] concerns the target T2, EGFR on A431 epidermoid carcinoma cells. The experiment in a line: cell-based or functional assay. This is another data set of the same source.
In assay [4] the target is T3, human monomeric EGFR (EGFR.mmh) (human, UniProt P00533 25-647).
T3 construct: Soluble monomeric EGFR construct
The experiment in a line: SPR 37C, mAb captured by anti-human Fc, EGFR.mmh analyte. On the procedure:
as §1

Numbering of substitutions follows the chain as printed. Names and notes keep the numbering of the source.

B1: H1H134P (antibody, human IgG1, V domains shown)
VH: EVQLVESGGGLVQPGGSLRLSCAASGFTFDDFAIHWVRQTPGRGLEWVSGLSWNSAYIAYADSVKGRFTISRDNAKDSLYLQMNSLRPEDTALYYCVKDTDIHLWFLFDFWGQGTLVTVSS
VL: not shown
notes: Human IgG1 Fc (H1H)
B1: in assay [1], the Kd (usually the free concentration of one partner at which half of the binding sites on the other are occupied at equilibrium, for simple one-to-one binding) worked out at 0.00799 nM; the koff – broadly, the first-order rate constant of dissociation – amounted to 2.47e-05 s⁻¹; the kon (usually the rate constant with which the complex forms) came out at 3.09e+06 M⁻¹ s⁻¹; the t1/2 was 7.8 h. Also, in assay [2], the “ADCC EC50” value stood at 4.61e-11 Molar and the “Maximum Cell Killing (%)” value worked out at 33%. For the same molecule, the “IC50 of A431 Proliferation” value in assay [3] was 1.84e-09 Molar. In assay [4], this molecule showed a Kd of 0.848 nM, a koff of 0.000789 s⁻¹, a kon of 930000 M⁻¹ s⁻¹ and a t1/2 of 0.25 h.

B2: H1H102N (antibody, human IgG1, V domains shown)
VH: QVQLQESGPGLVQPSQTLSLTCTVSGGSVSSGDYYWSWIRQHPGKGLEWIGHIYYSGITYYNPSLESRVTITLDTSKNQFSLNLRSVTAADTAVHYCARTAIIGTMDNWGRGTLVTVSS
VL: EIVMTQSPATLSVSPGERATLSCRASQSVSSNLAWYQQKPGQAPRLLIYDASTRATGFPARFSGSGSGTEFTLTISSLQSEDFAVYYCQQYNTWWTFGQGTKVEIK
notes: Tested in human IgG1 Fc format (H1H); also called H1M102N
In assay [1], B2 displayed a Kd of 0.0651 nM, a koff of 5.62e-05 s⁻¹, a kon of 863000 M⁻¹ s⁻¹ and a t1/2 of 3.43 h. In assay [2], the “ADCC EC50” value was 4.39e-13 Molar and the “Maximum Cell Killing (%)” value stood at 48%. Also, in assay [3], the “IC50 of A431 Proliferation” value is 2.88e-10 Molar. In assay [4], the affinity, expressed as Kd, was 5.67 nM; the koff stood at 0.000943 s⁻¹; the association rate constant (kon) amounted to 166000 M⁻¹ s⁻¹; the t1/2 turned out to be 0.2 h.

B3: H1H116N (antibody, human IgG1, V domains shown)
VH: QVQLQESGPGLVKPSQTLSLTCTVSGGSVSSGDYYWSWIRQHPGKGLDWIGHIYYSGSTYYNPSLKSRVTISLDTSKNQFSLKLNSVTAADTAVYYCARTAITGTMDYWGQGTLVTVSS
VL: B2 VL with P15A, Y36F, F58I, T74I, V85L, T93S
notes: Tested in human IgG1 Fc format (H1H); also called H1M116N
Take B3: in assay [1], the Kd turned out to be 0.0203 nM, the koff worked out at 3.16e-05 s⁻¹, the kon stood at 1.55e+06 M⁻¹ s⁻¹ and the t1/2 turned out to be 6.1 h. For the same molecule, in assay [2], the “ADCC EC50” value is 2.51e-13 Molar and the “Maximum Cell Killing (%)” value stood at 29%. For the same molecule, in assay [3], the “IC50 of A431 Proliferation” value came out at 2.24e-10 Molar. In assay [4], this molecule came in with a Kd of 5.27 nM, a koff of 0.00284 s⁻¹, a kon of 539000 M⁻¹ s⁻¹ and a t1/2 of 0.0667 h.

B4: H1H147P (antibody, human IgG1, V domains shown)
VH: EVQLVESGPGLVQPSQTLSLTCTVSGGSINSGDFYWSWIRQHPGKGLEWIGHIYYSGITYYSPSLKSRLTISVDTSKNQFSLKLSSVTAADTAVYYCARKRVTGEVDYWGQGTLVTVSS
VL: DIQMTQSPSSLSASVGDRITITCQANQDINNYLNWYQQKPGKAPKLLISDASNLETGVPSRFSGSGSGTDFTFTISSLQPEDIATYYCQQYDNLPPTFGQGTRLEIKR
notes: Human IgG1 Fc (H1H)
In assay [1], B4 displayed a Kd of 0.0664 nM, a koff of 1.26e-05 s⁻¹, a kon of 190000 M⁻¹ s⁻¹ and a t1/2 of 15.2 h. The “Maximum Cell Killing (%)” value in assay [2] was 13%. The “IC50 of A431 Proliferation” value in assay [3] worked out at 9.77e-11 Molar. In assay [4], binding was put at a Kd of 5.76 nM, the koff came to 0.000376 s⁻¹, the kon is 65400 M⁻¹ s⁻¹ and the t1/2 stood at 0.517 h.

B5: H1H0085N (antibody, V domains shown)
VH: EVQLVESGGGLVQPGRSLRLSCAASGFTFDDYAMHWVRQAPGKGLEWVSGINWNSDKIAYADSVKGRFTISRDNAENSLFLQMNSLRPEDTALYYCVKRGDFWTEYYDYWGQGTLVTVSS
VL: DIVMTQSPLSLPVTPGEPASISCRSSQSLLHSNGYNYLDWYLQKPGQSPHLLIYLVSTRASGVPDRFSGSGSGTDFTLKISRVEAEDVGVYYCIQALQTPWTFGQGTKVEIK
notes: Tested in human IgG1 Fc format (H1H prefix); first obtained as H1M (mouse IgG1 Fc) from a hybridoma; also called H1M085N; H1H085N
Turning to B5, in assay [1], the Kd is 0.12 nM, the koff stood at 4.05e-05 s⁻¹, the kon came out at 336000 M⁻¹ s⁻¹ and the t1/2 amounted to 4.77 h. In assay [2], the “ADCC EC50” value amounted to 3.7e-13 Molar and the “Maximum Cell Killing (%)” value stood at 35%. Besides, the “IC50 of A431 Proliferation” value in assay [3] amounted to 1.65e-09 Molar. In assay [4], this molecule gave a dissociation constant (Kd) of 15.5 nM, a koff of 0.00185 s⁻¹, a kon of 119000 M⁻¹ s⁻¹ and a t1/2 of 0.1 h.

B6: H1H103N (antibody, human IgG1, V domains shown)
VH: EVQLVESGGGLVQPGGSLRLSCAASGFTFSSYDMHWVRQTTGKGLEWVSGIGTAGDTYYPGSVKGRFTISREDAKNSLYLQMNSLRAGDTAVYYCARVGYDWNFVAFDYWGQGTLVTVSS
VL: B5 VL with H50Q, Y54H, T58I, V90I, I94M
notes: Tested in human IgG1 Fc format (H1H); also called H1M103N
On to B6, for which, in assay [1], the Kd came out at 0.109 nM, the koff amounted to 4.19e-05 s⁻¹, the kon was found to be 383000 M⁻¹ s⁻¹ and the t1/2 is 4.6 h. Moreover, in assay [2], the “ADCC EC50” value is 7.25e-13 Molar and the “Maximum Cell Killing (%)” value was found to be 17%. Besides, in assay [3], the “IC50 of A431 Proliferation” value was found to be 3.89e-09 Molar. Also, in assay [4], the Kd is 13.9 nM, the koff amounted to 0.00139 s⁻¹, the kon was 100000 M⁻¹ s⁻¹ and the t1/2 was 0.133 h.

B7: H1H089N (antibody, human IgG1, V domains shown)
VH: B5 VH with E105D
VL: B5 VL with Y35H, T58N
notes: Tested in human IgG1 Fc format (H1H); also called H1M089N
With B7, in assay [1], the affinity, expressed as Kd, was 0.0301 nM; the koff was found to be 4.49e-05 s⁻¹; the association rate constant (kon) came to 1.49e+06 M⁻¹ s⁻¹; the t1/2 came to 4.28 h. Besides, in assay [2], the “ADCC EC50” value is 5.83e-12 Molar and the “Maximum Cell Killing (%)” value is 53%. Further, the “IC50 of A431 Proliferation” value in assay [3] came out at 2.3e-09 Molar. Also, in assay [4], binding was put at a Kd of 21.8 nM, the koff worked out at 0.00683 s⁻¹, the kon amounted to 313000 M⁻¹ s⁻¹ and the t1/2 is 0.0333 h.

B8: H1H086N (antibody, human IgG1, V domains shown)
VH: B5 VH with E105D
VL: B5 VL with I94M
notes: Tested in human IgG1 Fc format (H1H); also called H1M086N
In assay [1], B8 had a Kd of 0.00598 nM, a koff of 1.13e-05 s⁻¹, a kon of 1.9e+06 M⁻¹ s⁻¹ and a t1/2 of 17 h. In assay [2], the “ADCC EC50” value is 2.91e-13 Molar and the “Maximum Cell Killing (%)” value is 25%. Besides, the “IC50 of A431 Proliferation” value in assay [3] worked out at 5.46e-10 Molar. Further, in assay [4], the Kd amounted to 1.31 nM, the koff was 0.000708 s⁻¹, the kon turned out to be 540000 M⁻¹ s⁻¹ and the t1/2 was 0.267 h.

B9: H1H142P (antibody, human IgG1, V domains shown)
VH: QVQLQESGPGLVKPSQTLSLTCTVSGGSISSGDYYWNWIRQYPGKGLELIGYIYYSGITYYNPSLKSRLTISLDTSKNQFSLKLSSVTAADTAVYYCARDRVELRAFDIWGQGTMVTVSS
VL: DIQMTQSPSSLSASIGDRITISCQASQDINNYLNWYQQKPGKAPKLLIYDASNLETGIPSRFSGSGSGTDFTFTISGLQPEDIATYYCQHYDSLPLTFGQGTRLEIK
notes: Human IgG1 Fc (H1H)
In the case of B9, in assay [1], the Kd worked out at 0.0332 nM, the koff stood at 1.2e-05 s⁻¹, the kon was 361000 M⁻¹ s⁻¹ and the t1/2 stood at 16.1 h. Also, in assay [2], the “ADCC EC50” value worked out at 1.19e-12 Molar and the “Maximum Cell Killing (%)” value stood at 34%. Besides, the “IC50 of A431 Proliferation” value in assay [3] turned out to be 5.47e-10 Molar. In assay [4], the Kd was 4.35 nM, the koff amounted to 0.000689 s⁻¹, the kon came to 158000 M⁻¹ s⁻¹ and the t1/2 came out at 0.283 h.

B10: H1H143P (antibody, human IgG1, V domains shown)
VH: QVQLQESGPGLVMPSQTLSLTCTVSGGSINSGDYYWNWIRQHPGKGLEWIGYIYYSEISYHNPSLKSRVTTSIDTSTNQFSLKLSSVTAADTAVYYCARDRVELRAFDIWGQGTMVTVSS
VL: B9 VL with I15V, I19V, S22T, N30S, I58V, G77S
notes: Human IgG1 Fc (H1H)
For the molecule B10, in assay [1], the affinity, expressed as Kd, was 0.0354 nM; the koff stood at 1.35e-05 s⁻¹; the kon was 381000 M⁻¹ s⁻¹; the t1/2 was determined as 14.3 h. In assay [2], the “Maximum Cell Killing (%)” value came to 13%. Further, the “IC50 of A431 Proliferation” value in assay [3] turned out to be 9.97e-11 Molar. In assay [4], this molecule yielded a Kd of 5.71 nM, a koff of 0.000727 s⁻¹, a kon of 127000 M⁻¹ s⁻¹ and a t1/2 of 0.267 h.

B11: H1H144P (antibody, human IgG1, V domains shown)
VH: B10 VH
VL: B9 VL with I15V, I19V, S22T, N30S, I58V, G77S
notes: Human IgG1 Fc (H1H)
In assay [1], B11 yielded a Kd of 0.0217 nM, a koff of 1.94e-05 s⁻¹, an association rate constant (kon) of 894000 M⁻¹ s⁻¹ and a t1/2 of 9.93 h. For the same molecule, in assay [2], the “ADCC EC50” value is 4.57e-11 Molar and the “Maximum Cell Killing (%)” value was 43%. The “IC50 of A431 Proliferation” value in assay [3] came out at 1.39e-11 Molar. Besides, in assay [4], the affinity, expressed as Kd, was 5.25 nM; the koff came out at 0.000967 s⁻¹; the kon is 184000 M⁻¹ s⁻¹; the t1/2 turned out to be 0.2 h.

B12: H1H141P (antibody, human IgG1, V domains shown)
VH: B9 VH
VL: B9 VL with I15V, I19V, S22T, N30S, Y49N, I58V, G77S
notes: Human IgG1 Fc (H1H)
In assay [1], B12 registered a Kd of 0.00831 nM, an off-rate (koff) of 7.51e-06 s⁻¹, a kon of 903000 M⁻¹ s⁻¹ and a t1/2 of 25.6 h. For the same molecule, in assay [2], the “ADCC EC50” value was found to be 2.78e-12 Molar and the “Maximum Cell Killing (%)” value was 41%. Besides, the “IC50 of A431 Proliferation” value in assay [3] came to 1.41e-10 Molar. In assay [4], this molecule registered an equilibrium dissociation constant (Kd) of 1.02 nM, a koff of 0.000405 s⁻¹, a kon of 396000 M⁻¹ s⁻¹ and a t1/2 of 0.483 h.

These data come from patent US20180036405A1 (Regeneron, published 2018).
